Results published in PMC3419727, “Identifying the Hotspots on the Top Faces of WD40-Repeat Proteins from Their Primary Sequences by β-Bulges and DHSW Tetrads” (PLoS ONE, 2012).
Residue numbers refer to the chain shown, from its start.

Tests used:
Assay in all cases: ITC; Fep1 (~1.4 mM) injected, 2 µl each time, into Tup11 WT or mutant (~0.2 mM); 25°C; 1×PBS pH 7.4, 150 mM NaCl; iTC200 (MicroCal); Fep1 into buffer subtracted as background
Conditions in all cases: both partners purified
[1] = target: T1, S. japonicus Tup11 WD40 domain (301–630) Phe557Ala (S. japonicus, UniProt B6JV84 301-630, Phe557Ala)
T1 construct: Tup11, S. japonicus, WD40 domain, amino acids 301-630
T1 sequence (looked up): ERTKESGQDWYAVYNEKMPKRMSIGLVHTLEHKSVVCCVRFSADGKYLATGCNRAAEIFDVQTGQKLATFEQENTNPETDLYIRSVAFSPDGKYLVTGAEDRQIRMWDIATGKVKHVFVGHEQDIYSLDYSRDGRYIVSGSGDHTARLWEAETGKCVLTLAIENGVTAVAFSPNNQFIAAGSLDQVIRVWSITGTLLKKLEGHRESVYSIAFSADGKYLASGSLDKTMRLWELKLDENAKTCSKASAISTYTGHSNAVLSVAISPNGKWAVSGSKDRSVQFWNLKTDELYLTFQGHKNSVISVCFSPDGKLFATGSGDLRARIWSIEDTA

[2] = target: T2, S. japonicus Tup11 WD40 domain (301–630) Cys337Ala (S. japonicus, UniProt B6JV84 301-630, Cys337 substituted by Ala)
T2 construct: Tup11, S. japonicus, WD40 domain, amino acids 301-630; also called Cyc337
T2 sequence (looked up): T1 sequence (looked up) with C37A, A257F

[3] = target: T3, S. japonicus Tup11 WD40 domain (301–630) Thr467Ala (S. japonicus, UniProt B6JV84 301-630, Thr467 substituted by Ala)
T3 construct: Tup11, S. japonicus, WD40 domain, amino acids 301-630
T3 sequence (looked up): T1 sequence (looked up) with T167A, A257F

[4] = target: T4, S. japonicus Tup11 WD40 domain (301–630) Tyr426Ala (S. japonicus, UniProt B6JV84 301-630, Tyr426 substituted by Ala)
T4 construct: Tup11, S. japonicus, WD40 domain, amino acids 301-630
T4 sequence (looked up): T1 sequence (looked up) with Y126A, A257F

[5] = target: T5, S. japonicus Tup11 WD40 domain (301–630) Leu559Ala (S. japonicus, UniProt B6JV84 301-630, Leu559Ala)
T5 construct: Tup11, S. japonicus, WD40 domain, amino acids 301-630
T5 sequence (looked up): T1 sequence (looked up) with A257F, L259A

B1: C-terminal region of S. pombe Fep1 (amino acids 319–564) (domain or fragment, UniProt Q10134 319-564, looked up)
chain: AAGEPDNNGKVYYSYGPTQEQSILPLPENKHEGLPPYQNEYVPNGIRANQVVYPGQLVAVGNDSSKQLSESTTSNTDNNGVATANQSNPLGMKFHLPPILPVGESVCLPPRTSAKPRIAEGIASLLNPEEPPSNSDKQPSMSNGPKSEVSPSQSQQAPLIQSSTSPVSLQFPPEVQGSNVDKRNYALNVLSQLRSQHDLMIQELHNLNQHIQQIDEWLRSSDNENMASEHIKSSTPAVVASGALQT
notes: Fep1, GATA-factor, S. pombe, C-terminal region, amino acids 319-564
B1: binds [1]; binds [2]; binds [3]. The binding result [4] was “binds” and the “reduction of binding free energy against wild type” value [5] was about 1 kcal/mol.
